Data reported in publication PMC4150762, “The DEAD-box helicase Ded1 from yeast is an mRNP cap-associated protein that shuttles between the cytoplasm and nucleus” (Nucleic Acids Research, 2014).

T1: GST-NAB2-HIS6 (S. cerevisiae, UniProt P32505 1-525)
T1 construct: source: E. coli, purified on nickel-agarose
T1 sequence (looked up): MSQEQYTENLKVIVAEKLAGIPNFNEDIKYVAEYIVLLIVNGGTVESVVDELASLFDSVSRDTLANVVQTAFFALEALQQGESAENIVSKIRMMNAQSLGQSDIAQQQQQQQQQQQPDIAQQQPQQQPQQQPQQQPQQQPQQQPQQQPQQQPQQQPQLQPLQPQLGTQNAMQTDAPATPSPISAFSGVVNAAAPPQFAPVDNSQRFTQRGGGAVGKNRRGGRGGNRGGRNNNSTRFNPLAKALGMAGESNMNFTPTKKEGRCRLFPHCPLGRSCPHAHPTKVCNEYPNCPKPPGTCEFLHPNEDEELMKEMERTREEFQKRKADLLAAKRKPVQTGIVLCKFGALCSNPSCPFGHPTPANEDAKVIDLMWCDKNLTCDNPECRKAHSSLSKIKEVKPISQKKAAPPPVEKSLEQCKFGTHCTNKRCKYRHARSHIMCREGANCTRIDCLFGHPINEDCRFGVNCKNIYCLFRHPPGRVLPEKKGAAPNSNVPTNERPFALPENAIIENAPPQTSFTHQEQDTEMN


Assays:
[1] = target: T2, Ded1-His6 (S. cerevisiae, UniProt P06634 1-604); assay: cell-based or functional assay
T2 sequence (P06634 whole entry): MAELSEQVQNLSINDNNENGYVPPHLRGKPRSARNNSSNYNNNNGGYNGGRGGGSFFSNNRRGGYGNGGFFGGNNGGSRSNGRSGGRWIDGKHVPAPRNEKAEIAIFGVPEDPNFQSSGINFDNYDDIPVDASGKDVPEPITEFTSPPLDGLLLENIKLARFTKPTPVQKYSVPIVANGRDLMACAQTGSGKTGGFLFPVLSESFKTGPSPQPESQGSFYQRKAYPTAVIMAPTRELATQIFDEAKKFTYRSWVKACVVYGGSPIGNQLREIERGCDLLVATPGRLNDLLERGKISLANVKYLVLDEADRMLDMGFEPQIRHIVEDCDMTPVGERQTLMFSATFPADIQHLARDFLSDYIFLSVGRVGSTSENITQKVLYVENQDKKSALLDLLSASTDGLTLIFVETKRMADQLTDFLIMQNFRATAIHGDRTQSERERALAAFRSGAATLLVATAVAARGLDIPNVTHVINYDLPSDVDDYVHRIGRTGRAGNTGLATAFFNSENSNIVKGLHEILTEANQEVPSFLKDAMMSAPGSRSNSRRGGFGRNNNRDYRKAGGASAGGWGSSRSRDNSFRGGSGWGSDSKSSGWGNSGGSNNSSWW

[2] = target: T1, GST-NAB2-HIS6; assay: pull-down; 7-methyl-GTP Sepharose beads loaded with 5 μg purified eIF4E or Cbp20, 5 μg of the purified proteins added with 50 U RNase I, 90 min on ice, TpB buffer (20 mM HEPES pH 7.9, 100 mM KCl, 2 mM MgCl2, 2 mM DTT), eluted with 1 mM 7-methyl-GTP; Coomassie-stained SDS PAGE; details: both partners purified
[3] = target: T2, Ded1-His6; assay: pull-down; Ded1 bound to protein A Sepharose beads crosslinked to IgG against Ded1, incubated with single purified proteins, washed, eluted; Coomassie-stained SDS PAGE, western blot for Pab1 and Cbp80; same results with or without RNase I or AMP-PNP; details: both partners purified

RNA-dependent ATPase activity, % Ded1 [1] [%]	binding result [2]	binding result [3]	Binder
97	binds	–	His6-Cbp20 (natural protein, S. cerevisiae, UniProt Q08920 1-208, looked up, Cbp20 of S. cerevisiae subcloned from pRSETC20 into the NdeI-BamHI sites of pET19b; Printed name His6-Cbp20; also called Cpb20; source: E. coli (pET19b), purified on nickel-agarose) MSLEEFDEVKYDHSTKRLDTPSRYLLRKARRNPNGLQELRESMKSSTIYVGNLSFYTSEEQIYELFSKCGTIKRIIMGLDRFKFTPCGFCFIIYSCPDEALNALKYLSDTKLDEKTITIDLDPGFEDGRQFGRGKSGGQVSDELRFDFDASRGGFAIPFAERVGVPHSRFDNSSSQSNTNNYIPPPDAMGTFRPGFDEEREDDNYVPQ
–	–	binds	eIF4G-His6 fragment 387–952 (domain or fragment, S. cerevisiae, UniProt P39935 387-952, looked up, Not among the constructs of the methods) AGTKIGLEAEIETTTDETDDGTNTVSHILNVLKDATPIEDVFSFNYPEGIEGPDIKYKKEHVKYTYGPTFLLQFKDKLNVKADAEWVQSTASKIVIPPGMGRGNRSRDSGRFGNNSSRGHDFRNTSVRNMDDRANSRTSSKRRSKRMNDDRRSNRSYTSRRDRERGSYRNEEKREDDKPKEEVAPLVPSANRWVPKFKSKKTEKKLAPDGKTELLDKDEVERKMKSLLNKLTLEMFDAISSEILAIANISVWETNGETLKAVIEQIFLKACDEPHWSSMYAQLCGKVVKELNPDITDETNEGKTGPKLVLHYLVARCHAEFDKGWTDKLPTNEDGTPLEPEMMSEEYYAAASAKRRGLGLVRFIGFLYRLNLLTGKMMFECFRRLMKDLTDSPSEETLESVVELLNTVGEQFETDSFRTGQATLEGSQLLDSLFGILDNIIQTAKISSRIKFKLIDIKELRHDKNWNSDKKDNGPKTIQQIHEEEERQRQLKNNSRSNSRRTNNSSNRHSFRRDAPPASKDSFITTRTYSQRNSQRAPPPKEEPAAPTSTATNMFSALMGESDDEE
